The values below come from patent US20230054956A1 (VANDERBILT UNIVERSITY, published 2023).

To fix the notation:
T1: GII.4 Sydney 2012 virus-like particles (VLPs), based on strain AFV08795.1 (human norovirus GII.4 Sydney 2012, UniProt P54635 1-538, The particle is a multimeric assembly of VP1 with a little VP2 inside; one VP1 chain is given.)
T1 construct: VLP assembled from VP1 and VP2 in baculovirus/Sf9 cells; also called GII.4 VLPs
T1 chain: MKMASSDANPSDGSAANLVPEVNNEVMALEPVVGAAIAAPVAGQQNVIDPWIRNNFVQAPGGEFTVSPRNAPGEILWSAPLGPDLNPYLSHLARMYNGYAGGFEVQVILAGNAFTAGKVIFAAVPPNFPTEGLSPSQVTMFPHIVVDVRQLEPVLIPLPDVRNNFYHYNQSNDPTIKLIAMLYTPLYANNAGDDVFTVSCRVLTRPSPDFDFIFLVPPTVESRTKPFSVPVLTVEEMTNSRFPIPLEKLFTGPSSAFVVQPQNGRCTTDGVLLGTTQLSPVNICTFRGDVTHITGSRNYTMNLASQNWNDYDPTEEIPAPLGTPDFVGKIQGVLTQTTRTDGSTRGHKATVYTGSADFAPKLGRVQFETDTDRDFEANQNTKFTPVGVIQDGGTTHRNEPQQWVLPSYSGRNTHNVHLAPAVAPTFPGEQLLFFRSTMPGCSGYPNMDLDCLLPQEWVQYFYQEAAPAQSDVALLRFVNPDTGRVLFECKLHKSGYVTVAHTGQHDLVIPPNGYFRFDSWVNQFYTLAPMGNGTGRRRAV

B1: NORO-296A (antibody, V domains shown)
VH: QVQLVESGGGLVKPGGSLRLSCAASGFTFSEYYMSWVRQAPGKALEWVSYITSSFSSTSYADSVKGRFVISRDNAKNSLYLQMNSLRVEDTAVYYCARYGAEYGSRSFYFLDWGQGTLVTVSS
VL: QSVLTQPPSVSGAPEQRVTISCTGSSSNIGAGYDVHWYQVLPGIAPKLLIYDNNKRPSGVPDRFSGSKSGTSASLAITGLQAEDEADYYCQSYDSRLSSNVVFGGGTKLTVL
B2: NORO-278 (antibody, V domains shown)
VH: QVQLVESGGGVVQPGRSLRLSCAASGFTFSSYGMHWVRQAPGKGLEWVAVISYDGSNKYYADSVKGRFTISRDNSKNTLYLQMNSLRAEDTAVYYCAKVTIIAAADLLDYWGQGTLVTVSS
VL: QSVLTQPPSVSGAPGQRVTISCTGSSSNIGAGYDVHWYQQLPGTAPKLLIYGNSNRPSGVPDRFSGSKSGTSASLAITGLQAEDEADYYCQSYDSSLSGPVVFGGGTKLTVL
B3: NORO-123 (antibody, V domains shown)
VH: QVQLVESGGGVVQPGRSLRLSCSTSGFTFSQYPMHWVRQAPGKGLEWVALISYDGMNKYYADSVRGRFTISRDNSENTQYLQMNSLRGDDTAVYYCARVTGDCTGNRCSYWAYYYYGLDVWGQGTLVTVSS
VL: QSALTQPPSASGSPGQSVTISCTGTSSDVGGYKYVSWYQQHPGKAPKLMIYEVTRRPSGVPDRFSGSKSGNTAFLTVSGLQAEDEADYYCGSYAGSTTSGYVFGTGTKVIVL
B4: NORO-202A.1 (antibody, V domains shown)
VH: QVQLVQSGAEVKKPGASVKVSCKASEYTFTGYYLQWVRQAPGHGLEWMGWINPSGGTKYSQKFQGRVTMTRDTSITTVYMELSRLRSDDTAVYYCARDLLRNWGDHDAFDVWGQGTMVTVSS
VL: QSVLTQPPSASETPGQGVTISCSGSSSNIGSNFVCWYQQVPGTAPKLLIYKNNQRPSGVPDRFSGSKSGTSASLAISGLRSEDEADYYCSAWDDSLSGPVFGGGTKLTVL
B5: NORO-250B (antibody, V domains shown)
VH: QVQLVESGGGLVKPGGSLTLSCAASGFTFSDYYMNWIRQAPGKRLEWVSYISGIMSSTNYADSVKGRFTISRDTAKKSVYLQMNSLRAEDTAVYYCARATSQGATSYYFDSWGQGTLVTVSS
VL: QSVLTQPPSVSGAPGQRVTISCTGSSSNIGADYDVHWYQQLPGAAPRLLIYADINRPSGVPDRFSGSKSGTSASLAITGLQAEDEADYYCQSYDRSVSGSAVFGGGTKVTVL
B6: NORO-279A (antibody, V domains shown)
VH: QVQLVESGGGVVQPGRSLRLSCAASGFTFTKYGMHWVRQAPGKGLEWVAFIAYDGSVKYYGDSAKGRFAISRDNPKNTVYLQMNSLRAEDTAVYYCAKVEIHYYSNSLLGMDVWGQGTLVTVSS
VL: QSVLTQPPSASGTPGQRVTISCSGGNSNIGISYVYWYQHLPGTAPKLLISKNNLRPSGVPDRFSASKSGTSASLAISGLRSEDEAEYYCATLDINMTWVFGGGTKLTVL
B7: NORO-317 (antibody, V domains shown)
VH: QVQLVESGGGLVKPGGSLRLSCVASGFTFSDYYISWVRQAPGKGLEWVSYISAINSYTNYADSVRGRFTVSRDNAKKSVFLQMNSLRVDDTAVYYCARDVGGSVRYSSNSNKKSYNYFDPWGQGTLVTVSS
VL: SYELTQPPSVSVSPGQTATITCSGDVLSKEFAYWYQQKPGQAPVLVIYKDNERPSGIPERFSGSTSGTTVTLTISGVLAEDEAHYYCQSVDTRGTYKVFGGGTKLTVL
B8: NORO-313.1 (antibody, V domains shown)
VH: QVQLVESGGGLVKPGGSLRLSCAASGFTFSDFYMSWIRQAPGKGLEWVGYISSIAGATNYADSVKGRFTISRDSSKRSLYLQMNSLRVEDTAVYYCARMGRLELERRPHYYYPLDVWGQGTLVTVSS
VL: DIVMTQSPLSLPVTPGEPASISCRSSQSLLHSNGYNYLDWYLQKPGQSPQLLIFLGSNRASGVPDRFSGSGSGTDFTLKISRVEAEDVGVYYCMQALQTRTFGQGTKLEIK
B9: NORO-273A (antibody, V domains shown)
VH: QVQLVQSGAEVKKPGASVKISCKASGYDFTSFPMHWVRLGPGQRLEWMGWISAANGNTKYSQKFQDRFTITRDTSASIVHMELSSLRSEDTAVYYCARGGYSSGLYRYSNYYYGMTVWGQGTLVTVSS
VL: DIVMTQTPLSLSVTPGQPASISCKSSESLLHNDRKTYLFWYLQKPGQPPQLLIFQVSNRFSGVPDRFSGSGSGTDFTLRISRVEAEDVGIYYCLQTTQLPLTFGGGTKVEIK
B10: NORO-303 (antibody, V domains shown)
VH: QVQLVESGGGVVQPGRSLRLSCAASGFIFSSYAMHWVRQAPGKGLEWVAVMSYDGNNKYYADSVKGRFTISRDNSKNTLFLQMNSLRPEDTAVYYCARDCRVGWVFTYGMDVWGQGTLVTVSS
VL: QSALTQPPSASGSPGQSVTISCTGTSSDVGGYNYVSWYQQHPGKAPKLMMYEISKRPSGVPIRFSGSKSGNTASLTVSGLQAEDEADYYCSSYAGTYNCVVFGGGTKLTVL
B11: NORO-256A (antibody, V domains shown)
VH: QVQLVESGGGVVQAGRSLRLSCAASGFTFRSYGMHWVRQAPGKGLEWVAIISYDGGSKYYADSVKGRFTISRDNSKNTLYLQMNSLRVEDTALYYCAKDFLRVYSYGWHSFDIWGLGTLVTVSS
VL: QSVLTQPPSVSAAPGQRVTISCSGSSSNIGTYYVSWYQHLPGTAPKLLIYDNDKRPSGIPDRFSASKSGTSATLDIAGLQTGDEADYYCGTWDLSLTAGWVFGGGTKLTVL
B12: NORO-251A (antibody, V domains shown)
VH: QVQLVESGGGVVQPGRSLRLSCAASGFTFRSYGIHWVRQAPGKGLEWVALISYDGSSKYYADSVKGRFTISRDNSKNTLYLQMNSLRSEDTAVYYCAKVRLTSYSIGWFSFDYWGQGTLVTVSS
VL: QSVLTQPPSVSAAPGQKVTISCSGSSSNIANYYVSWYQQLPGRAPKLLIYDNNKRPSGIPDRISGSKSGTSATLGITGLQTGDEADYYCGTWDTSLSAWVFGGGTKLTVL
B13: NORO-310A (antibody, V domains shown)
VH: EVQLVESGGGLVRPGESLRLSCVASGFSVSDNYMSWVRQAPGKGLQWVSVIYSGGTTFYTDSVKGRFTISRDKSKNTLFLQMNSLRAEDTAVYFCTRDPSQYYDSRGHYYQTFTPSFDSWGQGTLVTVSS
VL: DIQMTQSPSVMSASVGDRVTITCRASQDISDYLAWFQQKPGKVPKRLIYAASSLQNGVPSRFSGSGSGTEFTLTISSLQPEDFATYYCLQHDTYPLTFGGGTKVEIK
B14: NORO-315B (antibody, V domains shown)
VH: QVQLVESGGGLVKPGGSLRLSCVASGFTFSDYYMTWFRQTPGRGLEWLSYISAIGGYTEYADSVKSRFIISRDNGKKSLYLQMNSLRAEDSGVYYCAREDCHGTSCYSGDWGQGTLVTVSS
VL: QSVLTQPPSVSGAPGQRVTISCTGSSSNIGAGYDVHWYQQLPGTAPKLLIYHNTNRPSGVPDRFSGSKSGTSAYLTITGLQAEDEADYYCQSYDRSLSKSRVFSGGTKLTVL
B15: NORO-312A (antibody, V domains shown)
VH: QVQLVESGGALVKPGESLRLSCAASGFTFSDSYMSWIRQAPGKGLEWVAYISGIMSSTNYADSVKGRFTISRDNGKNSVYLQMNNLRAEDTAVYYCARDAQYCSGGRCYLVFDYWGQGTLVTVSS
VL: QSVLTQPPSVSGAPGQRVTISCTGSSSNIGAGYEVHWYQQLPGAAPKLIIYGNNNRPSGVPDRFSGSKSGTSASLAITGLQADDEADYYCQSYDNRLRVFGGGTKLTVL
B16: NORO-263 (antibody, V domains shown)
VH: QVQLVESGGGLVKPGGSLRLSCAASGFTLSDYYMSWIRQAPGKGLEWVAYISSSHTSTYYRDSVKGRFTISRDSAKKSLYLQMNSLRVEDTAIYYCARDWVGGRSAYSDHWGQGTLVTVSS
VL: SYELTQPPSVSVSPGQTARITCSGDALPRRPAFWYQQKSGQAPVLVMYDDSKRPSGIPERFSGSSSGTVATLTISGAQVEDEADYHCYSTDSSGKERVFGGGTKLTVL
B17: NORO-246A (antibody, V domains shown)
VH: EVHLVESGGGLVKPGGSLRLSCAASGFTFSRYGMHWVRQAPGKGLEWVSSIVIRSDYKYYADSVKGRFTISRDNAKNSLYLQMNSLRADDTAVYYCARDLVEPGITPVGCDYWGRGTLVTVSS
VL: SNELTQAPSVSVSPGQTARITCFGDALANQYSYWYQRKPGQAPVLVIYKDSERPSGIPQRFSASNSGTTVTLTITGVQAEDEADYFCQSADSTGIYKVFGGGTKLTVL
notes: human hybridoma mAb; IgG, lambda
B18: NORO-232A.2 (antibody, V domains shown)
VH: QVQLKQWGAGLLKSSETLSLTCAFNGNSFGAFYWSWIRLSPGKGLEWIGEVNYLGGADYNPSLKSRVTMSADTSKRQFSLSLKSVTAADTGVYFCARGRPHDYSPGSYSRPRRYYGLDVWGQGTTVTVSS
VL: EIVLTQSPATLSLSPGDSATLSCRASQAVSTTYLAWYQQTRGQAPRLLIHGTYTRAIGIPDKFSGTGSGTDFTLTISGLAPEDFAVYYCQQYSSSPYTFGQGTKIEIT
notes: human hybridoma mAb; IgA, kappa; in both panels
B19: NORO-327A (antibody, V domains shown)
VH: QVQLEVSGGGLVKPGGSLRLSCAASGFTFTDYYMSWIRQAPGKGLEWVAYISGIMSSTKYADSVKGRFTISRDNGKNSVYLQMNSLTAEDTAVYYCARERVEPPSAVTDFWGQGTLVTVSS
VL: QSVLTQSPSVSGAPGQRVTISCTGTSSNIGAGYDVHWYQQFPGTAPKLLISHNTNRPSGVPDRFSGSKSGTSASLAITGLQAEDEADYYCQSFDSSLRGSRVFGGGTKLTVL
notes: as for B17

One experiment deals with GII.4 Sydney 2012 virus-like particles (VLPs), based on strain AFV08795.1 (human norovirus GII.4 Sydney 2012, UniProt P54635 1-538, The particle is a multimeric assembly of VP1 with a little VP2 inside; one VP1 chain is given.). In words: indirect ELISA, VLP coated. Background: An ELISA detects its analyte on a solid surface through an enzyme-linked reagent.
For the molecule B1, it took 0.6 µg/mL to reach a half-maximal effect (EC50). Take B2: the response was half-maximal at 4 µg/mL (EC50). The same measure, in the same setting: to B3 belongs 5.4 µg/mL.

As to B4, the EC50 (usually the concentration giving half of the maximal effect) amounted to 0.4 µg/mL. Still for that read-out and setting: as for B5, the figure is 0.2 µg/mL; as for B6, 0.2 µg/mL; as for B7, 0.4 µg/mL.

Molecule B8 displayed a half-maximal effective concentration (EC50) of 0.1 µg/mL. Same read-out and setting: to B9 belongs 0.2 µg/mL; to B10, 0.5 µg/mL; to B11, 0.9 µg/mL. Still for that read-out and setting: as for B12, the figure is 0.9 µg/mL.

In the case of B13, the midpoint of the response, the EC50, lay at 6.2 µg/mL. On the same count and under the same terms, to B14 belongs 0.7 µg/mL; to B15, 0.4 µg/mL; to B16, 0.6 µg/mL.

The next experiment concerns the target T1, GII.4 Sydney 2012 virus-like particles …. In words: indirect ELISA, VLP coated.
Take B17: it took 0.2 µg/mL to reach a half-maximal effect (EC50). B18 registered an EC50 of 0.3 µg/mL. Consider B19, for which the midpoint of the response, the EC50, lay at 0.6 µg/mL.
